Test [1] concerns the target SARS-CoV-1 S protein expressed on ExpiCHO cells (SARS-CoV-1, UniProt P59594 14-1255). The experiment in a line: flow.
Test [2] addresses SARS-CoV-1 RBD (Sino Biological) (SARS-CoV-1, UniProt P59594 306-527). The experiment in a line: BLI. Background: In BLI a coated tip is dipped into the sample, and binding shifts an interference pattern.
For test [3], the target named is SARS-CoV-2 Spike (S) protein, strain BetaCoV/Wuhan-Hu-1/2019, expressed on ExpiCHO cells (UniProt P0DTC2 14-1273). In words: flow.

B1: SARS-CoV-2 S304 mAb (antibody, V domains shown)
VH: EVQLVESGGGLVQPGGSLRLSCAASGFTFSSYDMHWVRQTTGKGLEWVSTIGTAGDTYYPDSVKGRFTISREDAKNSLYLQMNSLRAGDTAVYYCARGDSSGYYYYFDYWGQGTLLTVSS
VL: DIQMTQSPSSLSAAVGDRVTITCRASQSIGSYLNWYQQKPGKAPKLLIYAASSLQSGVPSRFSGSGSGTDFTLTISSLQPEDFAIYYCQQSYVSPTYTFGPGTKVDIK
As usually defined, the EC50 is the concentration at which the effect is half-maximal. For the molecule B1, in test [1], the EC50 was found to be 11.4 ng/mL.

B2: SARS-CoV-2 S303 mAb (antibody, V domains shown)
VH: EVQLVESGGGLVKPGGSLRLSCAASGFTFLTYSMNWVRQTPGKRLQWVSAISGSGGATYYADSVKGRFTISRDNSKNTLYLQMNTVTADDTAIYFCARERDDIFPMGLNAFDIWGQGAMVIVSS
VL: DIQMTQSPSTLSASVGDRVTITCRASQSISNWLAWYQQKPGKAPKLLIYKASSLESGVPSRFSGSGSGTEFTLTISSLQPDDSATYYCQQYDTYSWTFGQGTKVEIK
In general, Kd refers to the concentration at which binding is half-saturated. Read a low Kd as a tighter complex. Take B2: the Kd in test [2] worked out at 0.869 nM. In test [1], the response was half-maximal at 1.06 ng/mL (EC50).

B3: SARS-CoV-2 S315 mAb (antibody, V domains shown)
VH: EVQLVESGGGLVQPGGSLRLSCAASGFTFSNYWMTWVRQAPGKGLEWVANIKQDGSEKYYVDSVKGRFTISRDNAKNSLYLQMNSLRAEDTAVYYCARDLWWNDQAHYYGMDVWGQGTTVTVSS
VL: SYELTQPPSVSVSPGQTARITCSGDAFPNQYAYWYQQKPGQAPVMLIYKDSERPSGIPERFFGSSSGTTVTLTIRGVQAEDEADYYCQSADSSGTVFGGGTKLTVL
B3 returned an EC50 in test [1] of 7.59 ng/mL.

B4: SARS-CoV-2 S310 mAb (antibody, V domains shown)
VH: QVQLVQSGAELKKPGSSVKVSCKASGGTFNSYSFNWVRQAPGQGLEWLGGIIPVLGTSNYAQKFQGRVAVTADEFTTTAYMELSSLRSEDTAVYYCATRTYDSSGYRPYYYGLDVWGQGTPVTVSS
VL: QSALTQPASVSGSPGQSITISCTGTSSDVGSYNLVSWYQQRPGKAPELMIYEVTKRPSGLSNRFSGSKSGNTASLTISGLQAEDEADYYCCSYAGSDTVIFGGGTKVTVL
In the case of B4, in test [1], the EC50 was found to be 254 ng/mL.

B5: SARS-CoV-2 S306 mAb (antibody, V domains shown)
VH: QVQLVQSGAEVKKPGASVKVSCKASTYTFTSFGISWVRQAPGQGLEWMGWITTYSGDTNYAQKFQGRVTMTTDTSTNTAYMELRSLRSDDTAVYYCASDYFDSSGYYHSFDYWGQGTLVTVSS
VL: EIVLTQSPDTLSLSPGERATLSCRASQSVSSYLAWYQQRPGQAPRLLIYDASKRATGIPARFSGSGSGTDFTLTISSLEPEDFAVYYCQQRSNWPPGCSFGQGTKVEIK
As for B5, the results for the EC50 in test [3] and in test [1] were 1.42 ng/mL and 20.8 ng/mL, respectively.

Source of the values: US20210261650A1 (published 2021).
